Read-outs that look alike come from different tables or passages of the source.
Columns and labels:
[1] = target: CXCR4^QTY-Fc (not stated | rabbit); test: graphene field-effect transistor array
[2] = target: CXCR4^QTY-Fc (not stated | rabbit); test: graphene field-effect transistor array; remark: listed apart in the source

## recombinant HIV coat glycoprotein gp_(41–120)
[1]
  Kd: 5.8 nM
[2]
  Kd: 19.1 nM
